Test results from PMC7339825 (Nature structural & molecular biology, 2020).

B1: GST-TSG101 UEV domain (residues 2-145) (domain or fragment)
chain: AVSESQLKKMVSKYKYRDLTVRETVNVITLYKDLKPVLDSYVFNDGSSRELMNLTGTIPVPYRGNTYNIPICLWLLDTYPYNPPICFVKPTSSMTIKTGKHVDANGKIYLPYLHEWKHPQSDLLGLIQVMIVVFGDEPPVFSRP
B2: binary TSG101-VPS28 ESCRT-I head subcomplex, wild type (complex)
chain 1: QSENNDIDEVIIPTAPLYKQILNLYAEENAIEDTIFYLGEALRRGVIDLDVFLKHVRLLSRKQFQLRALMQKARKTAGLSD
chain 2: MFHGIPATPGIGAPGNKPELYEEVKLYKNAREREKYDNMAELFAVVKTMQALEKAYIKDCVSPSEYTAACSRLLVQYKAAFRQVQGSEISSIDEFCRKFRLDCPLAMERIKEDRPITIKDDK

Assays:
[1] = target: B2; test: pull-down
SEC = target: the molecule itself; test: SEC

Row | binding result [1] | Binder | binding result (SEC)
1 | binds | B1 | 
2 |  | B2 | binds
